Source: patent publication US9375425B2, “Combination of a C-Met antagonist and an aminoheteroaryl compound for the treatment of cancer” (Pierre Fabre Medicament, priority 2008, dated 2016)
Substitutions are numbered along the chain they refer to. Where two headings read alike, the source gives them in different places. Values belong to the molecule of their own block, whether it stands above or below them.

Key:
NCI-H441 NSCLC = experiment: In vivo activity of 224G11 and PF-02341066 as single treatments, NCI-H441 s.c. xenograft; conditions: NCI-H441 s.c. in Athymic nude mice; for tumors growth of treated mice (FIG. 1): 224G11 i.p. 2 mg loading dose then 1 mg twice a week, PF-02341066 50 mg/kg p.o.; for antitumoral activity, single treatments compared with each other: same regimens
Protocol: In order to verify that the NCI-H441 in vivo model available in the laboratory is sensible to both the 224G11 antibody and the PF-2341066 compound, immunocompromised mice engrafted subcutaneously with NCI-H441 were used. Briefly, NCI-H441 NSCLC cells from ATCC were cultured in RPMI 1640 medium, 10% FCS, 1% L-Glutamine. Cells were split two days before engraftment so that they were in exponential phase of growth. Ten million NCI-H441 cells were injected s.c. to Athymic nude mice. […] For the antibody treatment, mice were treated i.p. with a loading dose of 2 mg of 224G11 Mab/mouse and then twice a week with 1 mg of antibody/mouse. 50 mg/kg of PF-02341066 was administered p.o. (oral gavage), daily for a week and then 5 days a week with a double dose the fifth day. Treatment lasted during the whole experiment. Tumor volume was measured twice a week and calculated by the formula: π/6×length×width×height.

NCI-H441 cells = experiment: In vivo activity of a combination of 224G11 and PF-02341066, NCI-H441 xenograft; set-up: species or system Athymic nude mice; conditions: day 53 post first injection; 224G11 i.p. 2 mg then 1 mg twice a week; PF-2341066 50 mg/kg p.o.
Protocol: NCI-H441 cells from ATCC were routinely cultured in RPMI 1640 medium, 10% FCS, 1% L-Glutamine. Cells were split two days before engraftment so that they were in exponential phase of growth. Ten million NCI-H441 cells were engrafted to Athymic nude mice. […] For the antibody treatment, mice were treated i.p. with a loading dose of 2 mg of 224G11 Mab/mouse and then twice a week with 1 mg of antibody/mouse. 50 mg/kg of PF-2341066 was administered p.o. (oral gavage), daily for a week and then 5 days a week with a double dose the fifth day. The group of mice receiving both 224G11 and PF-2341066 was treated following the same modalities as the one described above for each compound. Tumor volume was measured twice a week and calculated by the formula: […]×length×width×height and animal weights were monitored every day over the period of treatment.
Statistical analysis was performed at each measured time using a Mann-Whitney test. In this experiment, mice of the control group were sacrificed on day 53 for ethical reasons. At day 53 post first injection, the average tumor volume of single modality treated groups is reduced by 64%, 73% and 93% for 224G11, PF-2341066 and 224G11+PF-2341066 respectively. […] No significant differences were observed between the 2 single modality treatment.

c-Met mutations = conditions: cited from earlier work
[1] = In vivo activity of the anti-c-Met antibodies
c-Met = c-Met (Homo sapiens, UniProt P08581); experiment: Inhibition of c-Met dimerization by the antibodies
c-Met, sequence (P08581 25-1390): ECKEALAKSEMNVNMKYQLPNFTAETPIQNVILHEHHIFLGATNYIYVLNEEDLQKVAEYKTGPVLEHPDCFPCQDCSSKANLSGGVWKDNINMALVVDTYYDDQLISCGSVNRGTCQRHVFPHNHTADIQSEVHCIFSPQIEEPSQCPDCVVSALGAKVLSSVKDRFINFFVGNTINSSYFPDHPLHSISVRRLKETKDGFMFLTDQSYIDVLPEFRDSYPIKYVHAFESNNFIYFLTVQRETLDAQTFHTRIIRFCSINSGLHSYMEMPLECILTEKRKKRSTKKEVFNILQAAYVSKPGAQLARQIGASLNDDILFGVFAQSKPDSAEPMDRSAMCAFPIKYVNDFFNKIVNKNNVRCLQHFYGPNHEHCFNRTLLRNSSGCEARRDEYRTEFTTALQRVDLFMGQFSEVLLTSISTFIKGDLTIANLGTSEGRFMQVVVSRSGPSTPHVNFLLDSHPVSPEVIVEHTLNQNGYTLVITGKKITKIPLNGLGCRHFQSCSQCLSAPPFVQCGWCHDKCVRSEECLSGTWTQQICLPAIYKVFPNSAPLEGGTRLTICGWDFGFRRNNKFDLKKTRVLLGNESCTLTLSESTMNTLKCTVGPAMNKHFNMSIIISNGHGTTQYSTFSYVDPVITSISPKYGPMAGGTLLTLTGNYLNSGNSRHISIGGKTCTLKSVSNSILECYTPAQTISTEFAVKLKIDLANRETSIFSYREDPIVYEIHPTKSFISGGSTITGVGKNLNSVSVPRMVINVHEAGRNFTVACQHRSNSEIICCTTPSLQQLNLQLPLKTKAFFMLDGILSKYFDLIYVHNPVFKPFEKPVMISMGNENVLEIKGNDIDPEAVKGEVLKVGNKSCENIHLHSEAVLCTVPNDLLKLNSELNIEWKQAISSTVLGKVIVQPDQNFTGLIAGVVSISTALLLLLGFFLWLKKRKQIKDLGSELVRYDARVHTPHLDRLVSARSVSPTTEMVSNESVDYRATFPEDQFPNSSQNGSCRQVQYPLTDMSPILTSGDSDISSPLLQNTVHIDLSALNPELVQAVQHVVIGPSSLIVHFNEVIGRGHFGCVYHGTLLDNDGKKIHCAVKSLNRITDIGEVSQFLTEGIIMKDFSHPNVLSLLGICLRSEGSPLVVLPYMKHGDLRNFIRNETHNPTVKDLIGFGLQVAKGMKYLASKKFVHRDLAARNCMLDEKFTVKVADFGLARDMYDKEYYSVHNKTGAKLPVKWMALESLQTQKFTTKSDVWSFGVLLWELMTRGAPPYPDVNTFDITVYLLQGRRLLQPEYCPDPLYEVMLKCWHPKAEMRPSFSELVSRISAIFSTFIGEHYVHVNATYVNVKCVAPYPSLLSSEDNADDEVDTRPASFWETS

Molecule: C[C@@H](Oc1cc(-c2cnn(C3CCNCC3)c2)cnc1N)c1c(Cl)ccc(F)c1Cl [PF-02341066, 3-[(R)-1-(2,6-Dichloro-3-fluoro-phenyl)-ethoxy]-5-(1-piperidin-4-yl-1H-pyrazol-4-yl)-pyridin-2-ylamine, reference compound]
tumors growth of treated mice (FIG. 1) (NCI-H441 NSCLC): significant difference in tumors growth
antitumoral activity, single treatments compared with each other (NCI-H441 NSCLC): comparable antitumoral activities
average tumor volume reduced by (NCI-H441 cells): 73%

Molecule: Cc1[nH]c(/C=C2\C(=O)Nc3ccc(S(=O)(=O)N(C)c4cccc(Cl)c4)cc32)c(C)c1C(=O)N1CCN(C)CC1 [SU11274]
sensitivity of c-Met mutation to the agent (c-Met mutations; H1112Y mutation, decreased cell growth and motility): sensitive
sensitivity of c-Met mutation to the agent (c-Met mutations; L1213V mutation): resistant
sensitivity of c-Met mutation to the agent (c-Met mutations; M1268T mutation, decreased cell growth and motility): sensitive
sensitivity of c-Met mutation to the agent (c-Met mutations; Y1248 mutation): resistant

c-Met dimerization (c-Met): inhibit the c-Met dimerization
B1: 11E1: monoclonal antibody antagonist to c-Met, hybridoma CNCM I-3724; heavy chain SEQ ID No. 53, light chain SEQ ID No. 54 (antibody, V domains shown)
VH: QVQLQQSGAELAKPGASVKMSCKASGYTFTSYWMNWVKQRPGQGLEWIGYINPTTGSTDYNQKLKDKATLTADKSSNTAYMQLSSLTSEDSAVYYCAIGGYGSWFAYWGQGTLVTVSA
VL: QIVLTQSPAIMSASPGEKVTLTCSASSSVSSTYLYWYQQKPGSSPKLWIYTTSILASGVPARFSGSGSGTSYSLTISSMETEDAASYFCHQWSSYPFTFGSGTKLDIK
modifications: mus musculus
activity in vivo [1]: active in vivo

c-Met dimerization (c-Met): inhibit the c-Met dimerization
B2: 224G11: monoclonal antibody antagonist to c-Met secreted by murine hybridoma CNCM I-3731; heavy chain SEQ ID No. 18, light chain SEQ ID No. 21 (antibody, V domains shown)
VH: EVQLQQSGPELVKPGASVKISCKTSGYIFTAYTMHWVRQSLGESLDWIGGIKPNNGLANYNQKFKGKATLTVDKSSSTAYMDLRSLTSEDSAVYYCARSEITTEFDYWGQGTALTVSS
VL: DIVLTQSPASLAVSLGQRATISCRASESVDSYANSFMHWYQQKPGQPPKLLIYRASNLESGIPARFSGSGSRTDFTLTINPVEADDVATYYCQQSKEDPLTFGSGTKLEMK
modifications: mus musculus
tumors growth of treated mice (FIG. 1) (NCI-H441 NSCLC): significant difference in tumors growth
antitumoral activity, single treatments compared with each other (NCI-H441 NSCLC): comparable antitumoral activities
average tumor volume reduced by (NCI-H441 cells): 64%
activity in vivo [1]: active in vivo

c-Met dimerization (c-Met): inhibit the c-Met dimerization
B3: 227H1: monoclonal antibody antagonist to c-Met, hybridoma CNCM I-3732; heavy chain SEQ ID No. 19, light chain SEQ ID No. 22 (antibody, V domains shown)
VH: EVQLQQSGPELVKPGASMKISCKASGYSFTDYTLNWVKQSHGKTLEWIGLINPYNGGTTYNQKFKGKATLTVDKSSSTAYMELLSLTSEDSAVYYCAREEITKDFDFWGQGTTLTVSS
VL: B2 VL with D1G, A25V, V29I, S31T, A33G, M37I, V87S, K96N, L100F
modifications: mus musculus
activity in vivo [1]: active in vivo

c-Met dimerization (c-Met): inhibit the c-Met dimerization
B4: 223C4: monoclonal antibody antagonist to c-Met, hybridoma CNCM I-3786; heavy chain SEQ ID No. 20, light chain SEQ ID No. 23 (antibody, V domains shown)
VH: EVLLQQSGPELVKPGASVKIPCKASGYTFTDYNMDWVKQSHGMSLEWIGDINPNNGGTIFNQKFKGKATLTVDKSSSTAYMELRSLTSEDTAVYYCARGRYVGYYYAMDYWGQGTSVTVSS
VL: DIQMTQSPASLSVSVGETVTITCRASENIYSNLAWYQQKQGKSPQLLVYAATNLVDGVPSRFSGSGSGTQYSLKINSLQSEDFGSYYCQHFWGPPYTFGGGTKLEIK
modifications: mus musculus
activity in vivo [1]: active in vivo
